Laboratory results from patent US20240109958.

How the values were obtained:
[1] = biological target: Ub vinyl sulfone HA-tagged probe (Ub-VS-HA; Cat #U-212, Boston Biochem) (UniProt P0CG48)
[2] = biological target: lysine-less catalytically inactive UCHL1 (UniProt P09936)
[3] = biological target: lysine-less catalytically inactive UCHL5 (UniProt Q9Y5K5)

| Substance | modification by the suicide probe Ub-VS (immunoblot) [1] | in vitro ubiquitination assay with purified proteins (immunoblot) [2] | in vitro ubiquitination assay with purified proteins (immunoblot) [3] |
| --- | --- | --- | --- |
| N-terminally ubiquitinated mimetic Ub^G76V_UCHL1 | Ub^G76V_UCHL1 remained largely unmodified |  |  |
| N-terminally ubiquitinated mimetic Ub^G76V_UCHL5 | Ub^G76V_UCHL5 rapidly reacted with Ub-VS |  |  |
| UBE2W (Cat #E2-740, Boston Biochem) |  | UBE2W can monoubiquitinate lysine-less versions of both UCHL1 and UCHL5 | UBE2W can monoubiquitinate lysine-less versions of both UCHL1 and UCHL5 |
